From patent WO2022194311A2

Columns and labels:
Test in all cases: SPR (Biacore 8K), His-tagged FcRn captured by anti-His antibody on CM5 chip, pH 6.0
human FcRn (human) = human FcRn (human) (UniProt P55899)
rat FcRn (rat) = rat FcRn (rat) (UniProt P13599)
[1] = target: cynomolgus monkey FcRn (cynomolgus monkey) (UniProt Q8SPV9)

Measured: Kd

Sequence of human FcRn (human) (P55899 24-297 limits assumed, form in doubt): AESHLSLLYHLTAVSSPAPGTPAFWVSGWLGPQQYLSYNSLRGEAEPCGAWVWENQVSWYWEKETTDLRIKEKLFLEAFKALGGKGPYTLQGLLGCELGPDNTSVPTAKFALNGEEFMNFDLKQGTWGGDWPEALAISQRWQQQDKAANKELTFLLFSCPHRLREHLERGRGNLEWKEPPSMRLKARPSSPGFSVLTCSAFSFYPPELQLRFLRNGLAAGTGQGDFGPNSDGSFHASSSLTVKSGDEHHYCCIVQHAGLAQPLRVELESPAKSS
Sequence of rat FcRn (rat) (P13599 23-298 limits assumed, form in doubt): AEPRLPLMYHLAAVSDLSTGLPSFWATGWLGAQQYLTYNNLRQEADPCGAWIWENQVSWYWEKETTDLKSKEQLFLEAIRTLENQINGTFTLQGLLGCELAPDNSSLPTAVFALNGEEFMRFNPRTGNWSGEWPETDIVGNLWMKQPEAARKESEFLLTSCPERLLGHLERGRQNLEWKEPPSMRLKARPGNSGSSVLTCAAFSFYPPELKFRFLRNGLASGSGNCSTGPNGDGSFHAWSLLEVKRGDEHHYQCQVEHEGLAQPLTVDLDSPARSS
Sequence of cynomolgus monkey FcRn (cynomolgus monkey) (Q8SPV9 24-297 limits assumed, form in doubt): as the sequence (P55899 24-297 limits assumed, form in doubt) above, with N39D, E44Q, G99S, S189G, S190N, L217M, S269T counted along it

secukinumab (Cosentyx) (antibody)
10 nM: all assays above
